From article PMC12102759 (2025)

B1: AMOTL2 peptide 66-81 (Angiomotin-like protein 2), 16-mer library wild type / TNKS ANK (TNKS 12 ANK repeats, residues 174-649) (parent complex)
chain 1: LQQATRQEPQGQEHQG
chain 2: TGVPAVSGALRELLEACRNGDVSRVKRLVDAANVNAKDMAGRKSSPLHFAAGFGRKDVVEHLLQMGANVHARDDGGLIPLHNACSFGHAEVVSLLLCQGADPNARDNWNYTPLHEAAIKGKIDVCIVLLQHGADPNIRNTDGKSALDLADPSAKAVLTGEYKKDELLEAARSGNEEKLMALLTPLNVNCHASDGRKSTPLHLAAGYNRVRIVQLLLQHGADVHAKDKGGLVPLHNACSYGHYEVTELLLKHGACVNAMDLWQFTPLHEAASKNRVEVCSLLLSHGADPTLVNCHGKSAVDMAPTPELRERLTYEFKGHSLLQAAREADLAKVKKTLALEIINFKQPQSHETALHCAVASLHPKRKQVTELLLRKGANVNEKNKDFMTPLHVAAERAHNDVMEVLHKHGAKMNALDTLGQTALHRAALAGHLQTCRLLLSYGSDPSIISLQGFTAAQMGNEAVQQILSESTPIRTSD
B2: TPTE2 peptide 92-107 (Phosphatidylinositol 3,4,5-trisphosphate 3-phosphatase TPTE2), 16-mer library wild type / TLN1 PTB (TLN1 Phosphotyrosine-binding (PTB) domain, residues 309-401) (parent complex)
chain 1: LADLIFTDSKLYIPLE
chain 2: GVSFFLVKEKMKGKNKLVPRLLGITKECVMRVDEKTKEVIQEWNLTNIKRWAASPKSFTLDFGDYQDGYYSVQTTEGEQIAQLIAGYIDIILK

Variants of: B1
Experiment: proteomic peptide phage display deep mutational scan (ProP-PD DMS): M13 P8 16-mer library selected against immobilised GST-tagged bait for four days (rounds), NGS of the eluted pools per day and pseudo-replica; bait immobilised on MaxiSorp plates (10 µg), library pre-cleared on GST, 2 h binding at 4 °C, five washes; one round per day, days 1-4; value from days 2 and 3

| Variant | screen value |
| --- | --- |
| chain 1 LQQATRQEPQGQEHFG | 0.000668 average fractional NGS count over selection days 2 and 3 (reads of this peptide / all reads for the bait, averaged over … |
| chain 1 LQQATRQEPQGQEHDG | 0.000198 average fractional NGS count over selection days 2 and 3 (reads of this peptide / all reads for the bait, averaged over … |
| chain 1 LQQATRQEPQGQNHQG | 0.000173 average fractional NGS count over selection days 2 and 3 (reads of this peptide / all reads for the bait, averaged over … |
| chain 1 LQQATRQHPQGQEHQG | 0.000322 average fractional NGS count over selection days 2 and 3 (reads of this peptide / all reads for the bait, averaged over … |
| chain 1 LQQATRQGPQGQEHQG | 0.000387 average fractional NGS count over selection days 2 and 3 (reads of this peptide / all reads for the bait, averaged over … |
| chain 1 LQQANRQEPQGQEHQG | 0.000716 average fractional NGS count over selection days 2 and 3 (reads of this peptide / all reads for the bait, averaged over … |
| chain 1 LQQATRQEPQGQEKQG | 0.00043 average fractional NGS count over selection days 2 and 3 (reads of this peptide / all reads for the bait, averaged over … |
| chain 1 LQQPTRQEPQGQEHQG | 0.00156 average fractional NGS count over selection days 2 and 3 (reads of this peptide / all reads for the bait, averaged over … |
| chain 1 LQQLTRQEPQGQEHQG | 0.00111 average fractional NGS count over selection days 2 and 3 (reads of this peptide / all reads for the bait, averaged over … |
| chain 1 LQQATRQEPNGQEHQG | 0.000239 average fractional NGS count over selection days 2 and 3 (reads of this peptide / all reads for the bait, averaged over … |
| chain 1 AQQATRQEPQGQEHQG | 0.00444 average fractional NGS count over selection days 2 and 3 (reads of this peptide / all reads for the bait, averaged over … |
| chain 1 LEQATRQEPQGQEHQG | 0.00238 average fractional NGS count over selection days 2 and 3 (reads of this peptide / all reads for the bait, averaged over … |

Variants of: B2
Experiment: as above

| Variant | screen value |
| --- | --- |
| chain 1 LADLIFTDSKLYIPDE | 0.000238 average fractional NGS count over selection days 2 and 3 (reads of this peptide / all reads for the bait, averaged over … |
| chain 1 LADLIFTDSKLYIPVE | 0.0032 average fractional NGS count over selection days 2 and 3 (reads of this peptide / all reads for the bait, averaged over … |
| chain 1 LADLIFTDSKLYIPQE | 0.00188 average fractional NGS count over selection days 2 and 3 (reads of this peptide / all reads for the bait, averaged over … |
| chain 1 LADLIFTDSKLYIPWE | 0.000732 average fractional NGS count over selection days 2 and 3 (reads of this peptide / all reads for the bait, averaged over … |
| chain 1 LADLIFTDSKLYIPYE | 0.00117 average fractional NGS count over selection days 2 and 3 (reads of this peptide / all reads for the bait, averaged over … |
| chain 1 LADLIFTDSKLYIPFE | 0.000576 average fractional NGS count over selection days 2 and 3 (reads of this peptide / all reads for the bait, averaged over … |
| chain 1 LADLIFTDSKLYIPNE | 0.000216 average fractional NGS count over selection days 2 and 3 (reads of this peptide / all reads for the bait, averaged over … |
| chain 1 LADLIFTDSKLYIPHE | 0.00102 average fractional NGS count over selection days 2 and 3 (reads of this peptide / all reads for the bait, averaged over … |
| chain 1 LADLIFTDSKLYIPKE | 0.000159 average fractional NGS count over selection days 2 and 3 (reads of this peptide / all reads for the bait, averaged over … |
| chain 1 LADLIFYDSKLYIPLE | 0.000282 average fractional NGS count over selection days 2 and 3 (reads of this peptide / all reads for the bait, averaged over … |
| chain 1 LADLIFHDSKLYIPLE | 0.000516 average fractional NGS count over selection days 2 and 3 (reads of this peptide / all reads for the bait, averaged over … |
| chain 1 LADLIFWDSKLYIPLE | 0.000447 average fractional NGS count over selection days 2 and 3 (reads of this peptide / all reads for the bait, averaged over … |
| chain 1 LADLIFVDSKLYIPLE | 0.000833 average fractional NGS count over selection days 2 and 3 (reads of this peptide / all reads for the bait, averaged over … |
| chain 1 LADLIFTDNKLYIPLE | 0.00167 average fractional NGS count over selection days 2 and 3 (reads of this peptide / all reads for the bait, averaged over … |
| chain 1 LADLIFTDSKLYIPLS | 0.000917 average fractional NGS count over selection days 2 and 3 (reads of this peptide / all reads for the bait, averaged over … |
| chain 1 LADLIFTDSKLYIPLL | 0.000229 average fractional NGS count over selection days 2 and 3 (reads of this peptide / all reads for the bait, averaged over … |
| chain 1 LADLIFTDSKLYIPLV | 0.0105 average fractional NGS count over selection days 2 and 3 (reads of this peptide / all reads for the bait, averaged over … |
| chain 1 LADLIFTDSKLYIPLQ | 0.000507 average fractional NGS count over selection days 2 and 3 (reads of this peptide / all reads for the bait, averaged over … |
| chain 1 LADLIFTDSKLYIPLG | 0.000982 average fractional NGS count over selection days 2 and 3 (reads of this peptide / all reads for the bait, averaged over … |
| chain 1 LADLIFTDSKLYIPLM | 0.0125 average fractional NGS count over selection days 2 and 3 (reads of this peptide / all reads for the bait, averaged over … |
| chain 1 LADLIFTDSKLYIPLF | 0.000466 average fractional NGS count over selection days 2 and 3 (reads of this peptide / all reads for the bait, averaged over … |
| chain 1 LADLIFTDSKLYIPLI | 0.000286 average fractional NGS count over selection days 2 and 3 (reads of this peptide / all reads for the bait, averaged over … |

| Variant | screen value |
| --- | --- |
| chain 1 LADLIFTDSKLYIPLN | 0.00152 average fractional NGS count over selection days 2 and 3 (reads of this peptide / all reads for the bait, averaged over … |
| chain 1 LADLIFTDSKLYIPLA | 0.00143 average fractional NGS count over selection days 2 and 3 (reads of this peptide / all reads for the bait, averaged over … |
| chain 1 LADLIFTDSKLYIPLH | 0.00501 average fractional NGS count over selection days 2 and 3 (reads of this peptide / all reads for the bait, averaged over … |
| chain 1 LADLIFTDSKLWIPLE | 0.000296 average fractional NGS count over selection days 2 and 3 (reads of this peptide / all reads for the bait, averaged over … |
| chain 1 LADLIFTDSKLFIPLE | 0.00012 average fractional NGS count over selection days 2 and 3 (reads of this peptide / all reads for the bait, averaged over … |
| chain 1 LADLIWTDSKLYIPLE | 0.000583 average fractional NGS count over selection days 2 and 3 (reads of this peptide / all reads for the bait, averaged over … |
| chain 1 LADLIFTDSKLYVPLE | 0.00758 average fractional NGS count over selection days 2 and 3 (reads of this peptide / all reads for the bait, averaged over … |
| chain 1 LADLIFTDSKLYEPLE | 0.000182 average fractional NGS count over selection days 2 and 3 (reads of this peptide / all reads for the bait, averaged over … |
| chain 1 LADLIFTDSKLYRPLE | 0.00065 average fractional NGS count over selection days 2 and 3 (reads of this peptide / all reads for the bait, averaged over … |
| chain 1 LADLIFTDSKLYKPLE | 0.0008 average fractional NGS count over selection days 2 and 3 (reads of this peptide / all reads for the bait, averaged over … |
| chain 1 LADLIFTDSKLYTPLE | 0.000348 average fractional NGS count over selection days 2 and 3 (reads of this peptide / all reads for the bait, averaged over … |
| chain 1 LADLIFTDSKLYFPLE | 0.000135 average fractional NGS count over selection days 2 and 3 (reads of this peptide / all reads for the bait, averaged over … |
| chain 1 LADLIFTDSKLYLPLE | 0.000788 average fractional NGS count over selection days 2 and 3 (reads of this peptide / all reads for the bait, averaged over … |
| chain 1 LKDLIFTDSKLYIPLE | 0.000711 average fractional NGS count over selection days 2 and 3 (reads of this peptide / all reads for the bait, averaged over … |
| chain 1 LGDLIFTDSKLYIPLE | 0.00214 average fractional NGS count over selection days 2 and 3 (reads of this peptide / all reads for the bait, averaged over … |
| chain 1 LEDLIFTDSKLYIPLE | 0.000377 average fractional NGS count over selection days 2 and 3 (reads of this peptide / all reads for the bait, averaged over … |
| chain 1 LHDLIFTDSKLYIPLE | 0.00143 average fractional NGS count over selection days 2 and 3 (reads of this peptide / all reads for the bait, averaged over … |
| chain 1 LNDLIFTDSKLYIPLE | 0.000208 average fractional NGS count over selection days 2 and 3 (reads of this peptide / all reads for the bait, averaged over … |
| chain 1 LMDLIFTDSKLYIPLE | 0.000697 average fractional NGS count over selection days 2 and 3 (reads of this peptide / all reads for the bait, averaged over … |
| chain 1 LIDLIFTDSKLYIPLE | 0.000259 average fractional NGS count over selection days 2 and 3 (reads of this peptide / all reads for the bait, averaged over … |
| chain 1 LDDLIFTDSKLYIPLE | 0.0012 average fractional NGS count over selection days 2 and 3 (reads of this peptide / all reads for the bait, averaged over … |
| chain 1 LPDLIFTDSKLYIPLE | 0.000416 average fractional NGS count over selection days 2 and 3 (reads of this peptide / all reads for the bait, averaged over … |
